According to patent US20100304465:

Tested on: delta-plasminogen
Sequence (chain, as listed by the source mutant): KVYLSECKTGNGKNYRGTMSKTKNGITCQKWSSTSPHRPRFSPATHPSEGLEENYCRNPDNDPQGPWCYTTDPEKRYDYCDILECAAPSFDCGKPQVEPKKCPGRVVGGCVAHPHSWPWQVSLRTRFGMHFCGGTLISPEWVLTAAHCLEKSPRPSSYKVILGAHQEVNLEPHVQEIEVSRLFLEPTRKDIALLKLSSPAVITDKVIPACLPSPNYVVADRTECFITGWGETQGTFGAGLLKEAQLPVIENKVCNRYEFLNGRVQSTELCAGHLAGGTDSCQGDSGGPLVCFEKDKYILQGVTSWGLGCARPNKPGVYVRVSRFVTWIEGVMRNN

urokinase
conversion of one-chain delta-plasminogen into two-chain delta-plasmin (reduced SDS-PAGE): delta-plasminogen indeed can be activated by all three plasminogen activators
